In CN114805559A (UNIV ZHEJIANG, dated 2022):

Biological target: 新型冠状病毒SARS-CoV-2受体结合域RBD重组蛋白 (pET-28a(+)/RBD, E. coli Rosetta) (SARS-CoV-2, UniProt P0DTC2 319-541)
Assay: BLI (Fortebio), KD = Kdis/Kon

B1: 全人源抗新冠病毒受体结合域单链抗体No4 (purified recombinant scFv from pET-30a(+)/anti-RBD No4 in E. coli Rosetta) (scFv, not shown: small tags and cut ends)
scFv: RSSCRNPGGALVQPGGSLRLSCETSGFTFSRYWMNWFRQAPGKGLVWVSHISNNGRVTGYADSVKGRFTISRDNAKNILYLQMSGLRAEDTSLYYCARVHNAFCNSVSCVDAFDVWGQGTTVTVSSGGGGSGGGGSGGGGSDIVMTQTPSSLSASVGDRVTITCRASQRINSLLNWYQHKPGKPPKLLIYGASTLQSGVPSRFSGSESGADFTLTISSLQPEDVGTYYCQKYNSAPHTFGQGTRLEIK
notes: also called 抗RBD单链抗体No4; 抗RBD单链重组抗体No4
With B1 the Kd was 1.61 nM.
